Measurements from the DeepSol protein solubility set.

experiment: soluble on expression in E. coli; label from the status in PepcDB or PDB records

Row | Sequence | soluble on expression in E. coli
1 | MTAGVTTGAFYKHFTSKEALFEEIIQPHINALINMYNEEFAKYLLNLENIDIEKSWRENFNELDPFINYIFENKRIFDLVLFQSAGTKYQDIVEKITSFVTKKTVCCLDKLKTIGMINQNLVFNEEEIHFYIYSFYATFYDILKHSYSKEKTMLLTRRLYQFSVPGWIELLS | not soluble
2 | MSKTVLILGAGVGGLTTADTLRQLLPPEDRIILVDRSFDGTLGLSLLWVLRGWRRPDDVRVRPTAASLPGVEMVTATVAHIDIAAQVVHTDNSVIGYDALVIALGAALNTDAVPGLSDALDADVAGQFYTLDGAAELRAKVEALEHGRIAVAIAGVPFKCPAAPFEAAFLIAAQLGDRYATGTVQIDTFTPDPLPMPVAGPEVGEALVSMLKDHGVGFHPRKALARVDEAARTMHFGDGTSEPFDLLAVVPPHVPSAAARSAGLSESGWIPVDPRTLSTSADNVWAIGDATVLTLPNGKPLPKAAVFAEAQAAVVAHGVARHLGYDVAERHFTGTGACYVETGDHQAAKGDGDFFAPSAPSVTLYPPSREFHEEKVAQELAWLTRWKTLEHHHHHH | not soluble
3 | MELKEELLRGIYGFGFEKPSAIQKSAVAPCTTGKDVTIQSQAGSGKTVISLIDILQGIDCEDAHLQVILLAPQRGMAQRAHEQLKSLGRNLNVNATCLGFDTTAENDKISHVLMGTPKDFLSNIPSDTSRIKMFVLDEADEMLSKGFKDQIYEVFRSMPQDVQVVLLSATMPSEVLDVTNRFMRDPIRILVKKDELTLEGIRQFYINVQKDEWKFNCLCDLLKTSRETQALIFCNTRRRVTQLTEQLMSIPIKVSCFHGNMEHNEREDMVKDFNSRNTRVLVTTDLMARGMNIRKSLIINYDVSGNMENYMLRNGRQGNFGSKGLPISFFTENDISDLKKIENHYSTRIEEMPESFLEYLDEN | not soluble
4 | MTSPITLDALKVLDAIERKKSFAAAADELFRVPSAISYTVNKLEDDLGIALFDRSKRKAELTSVGIMLVEQGRLILKATDELTHMAKQSAEGWELELRICIDSILLFQPIYTLIAQFQQEYPWINIRVTEEVFGGTWDALVAGRSDLIIGATGEPYNSDFSLYKLGNVDFVFVVAKDHALIKEQQPLSNEIIKKYPSVVVADSSRNLPGRSAGLLDGQSRITVSSIEKKIEAQLLGLGVGFLPIHRIKSQLESGQLVILALETTENRNSELCMAWRNDNQGKALAWFVSNIQQMAVKLI | not soluble
5 | MDPGQRPNPFGAPGAIPKKPCLSQGSPGTSGSGAPCDEPSRSESPGEGPSGTGGSAAAGDITRQAVVAAITEWSRTRQLRISTGASEGKASIKDWIVCQVNSGKFPGVEWEDEERTRFRIPVTPLADPCFEWRRDGELGVVYIRERGNMPVDASFKGTRGRRRMLAALRRTRGLQEIGKGISQDGHHFLVFRVRKPEEEQCVECGVVAGAVHDFNNMARLLQEGFFSPGQCLPGEIVTPVPSCTTAEGQEAVIDWGRLFIRMYYNGEQVHELLTTSQSGCRISSALRRDPAVHYCAVGSPGQVWLPNVPNLACEIAKRELCDTLDACAKGILLTSSCNGIFCVCYHNGPVHFIGNTVPPDSGPLLLPQGKPTRIFNPNTFLVGLANSPLPAPSHVTCPLVKLWLGKPVAVGKLEPHAPSPRDFAARCSNFSDACVVLEIMPKPLWDAMQ | soluble
6 | MGSDKIHHHHHHMSSVGDFEEIILHDLKPYYHVPGAIHSEGITFVKETGTLLWVDIFKGEVHKVEDIEQPESSHSFFSISRANYGKNASIEYPPNPDELKESVGCIFPILDGASQNEIKQVLFGSKFGIGKLDFSKSEWEYVILYSECPELSTDRAYKLRSNDGNVSPDGKYIYVGLMSDFPFDLEPIGCLLRVDLLAHKIELVWNCLLIPNAIHWDESDQKTMYVTDSLNFTIWKCPGGDLLKRDELIDVKNSNNQSFESPEPDGSAIWFSKDGKHSGFLFITVWSTSKVQMFDLTNGKLLKEFILPEQTPRVSCCCFVGKDLFVTTANAEINDAVRTNTDKNGGCIYKIPNVLDGNVPLESTKRQPLH | not soluble
7 | MEREQALWIVKQQLTEQRYEHTLGVVETAVKLAKQYGADAKKAELAAIFHDYAKFRPVEEMKQIILAQNMPNDLLAYNSELWHAPVGAYLVQTEVGIDDPEVLDAIRYHTSGRAGMTVLEKIIYLADYIEPGRRFPGVDDVRRLAEEDLNRALLQAVKNTIAFLLEKRQLIYPDTIHAYNSLMREVKGEAKR | not soluble
8 | GPGSMGRASKDKRDIYYRKAKEEGYRARSAYKLLQIHEEFNILDPAEIRTGAVDLCAAPGSWSQVLAQHFKMISANLTAASEGDSLPAQTPRVVAVDLQEMAPIDGVTLLQGDITSEVTAREIIRLLNAPTSTGVVRTDDEQQQPQPASSSFSSSAPSPALGASPRKADIVLCDGAPDVTGMHELDEYLQHHLLLAALHITTFVLRAGGCFLTKIFRGPNTAFLVAKSQLFFQQVRVVKPKSSRNASMESFLLCQGFRMPLGYVPRFVGAAAPAAASSATTGCSRGAASASAGCGSRVEADNEEGVKGERSETAIGSGGPLRASGFTPEAPLYCYDTTASFSHASDGGAAAAATVHDVAHHNQRTSCTLADGVLAPFLSCGDLSGFDADMCYDRDEDADVLEPVQPPLQAPYLAAAAASPSQLAGVADGRDTEADASQKKKIRVESPTAIAGRDSSTGGEEQQ | not soluble
9 | MFCLETTFLIDLLRGRDEALKFYAKIRDSKLYTTSISAWELLRGPKLIGKDKEFEVAVELLESLDVLPFSFNSAKIAVEIEKDLREKGMEVNLIDVLIASVAMEHSLKLVTRDEHFSRIKGLEVERYRPE | soluble
10 | SEMLASLKEHPNELLDLLNSIITDFELAVDDLIENFMQSDFDALKLTMHTTKGMALNLGLKILASQALELETQLKMNQVPAIEQLQMLINRLQVNIHQGHRLRDELVKAQQNSEQVF | not soluble
11 | MAHHHHHHMGKKKVGEIQRSEDFCIPAGDRDANSALPAEEWPLLLKNYDKMNVRSTHFTLLECGWSPLRRPLAEYIKYGMINMDKPSNPSSHEVVSWIKRILKCDKTGHAGTLDPKVTGALIICTDRATRLVKSQQNAGKTYIGVLRLHDTVSQKKVDAALQRLTGPCFQRPPLIAAVKRQLRIRNIYSNQLIEYDKHRHLAVFETHCEAGTYIRTLCVHVGLILGAGGHMEELRRIRTGVITENDHLSTMHDVMDAQWLYENEKDDTYLRRVILPCEYLLSNHKRIVVKDSAVNAVCYGAKLMIPGLARFDNGIERDDVVVLMTTKGEAIALAYAEMTTSQMASVDHGIVARSKRVIMDRDTYPRRWGLGPIAVKKRSMMKDGLLDKYGRPQSNTPSDWFYVDYGGVKTNAEGVQYGQAPSKVGGVKRQRVPDSDDD | not soluble
12 | NSSDYRALFLNDVPMMDARAPVEFSKGAFPGVINLPLMNDIERQKVGTCYKQHGQDAAIQLGHQLVCGQVKDERVEAWVEFARANPNGYLYCFRGGLRSQTVQRWLKDAGVDYPRILGGYKAMRTFLLDTLHEAVTE | not soluble
13 | MFKAIVSAATLRDALDSVSVLVDECKIRLNEESLSIRAVDPANVGMVDLTLDAAAFESYEAHGGVIGVNLSRLEEVAGMAGAGDLIHLTLDEETRKLNIRIDGLSYTLALIDPDSIRQEPDIPDLDLAANIVLEGTHLDRGIKAADMVSDHIRLRVDGAEETFHIEAEGDTDDVDLSLPPADLISIEAGAADSLFSLDYLKDMNKAIPTDAEVTVELGEEFPVKLHYQIAEGMGTITYMLAPRIQSD | soluble
14 | TDKVRQNEKQKRSKALAQTQVNKRLLNEHGLNTPPMMKDEADQFVVSPTNWAGIIDQALAPPRTRKSYQKSMVSISGTKAVIETRSSKN | not soluble
15 | MTKQREKLIEVKNVKQHFDVSGGVVKAVNDISFDIYRGETFGLVGESGCGKSTTGRTIIRLYDATAGEVLFDGENVHGKKSRAELKKFNRKMQMIFQDPYASLNPRMTVGDIIAEGIDIHGLAKNKKERMDRVHELLNTVGLNKEHANRFPHEFSGGQRQRIGIARALAVEPEFIIADEPISALDVSIQAQVVNLLKKLQKEKGLTYLFIAHDLSMVKYISDRIGVMYRGQIVELTTSDELYANPIHPYTKSLLSAIPLPDPDYERNRKRIVYDPSQHNYGSEEPTMREIRPGHFVLCSEAEYKKYKEIYQ | not soluble
16 | MSLKLSAREWKDFSLEELFTVRGTKTTPLIILRKNNKKREKQLPYVTTKSTYNGIDDFFSGFTEEGNVITIDSATDGYVFYQLNNFSASDHVEKLIPKFKLNKYIALFLVNCIKKATKCKYGYGYKFSQTRIKRQKIMLPASNNQPDFQFMERYIKEKHFNLKSRIKEKQNHEINDWRELDDVEWTPFSTSEVFNNIQRGKRLTKSNQIKGLTPYISSSGINNGLDNFISNNEKIREFDNCLTIANSGSVGSAFYHTYRFIASDHVTHLKNNNLNKFSYLFIANMLRRLEGKYSFNRGINDFRIKRERILLPTKNNRPEYEFMEQYMKRKENEILDRLEGHHHHHH | not soluble
17 | MSFLVLPPEVNSALMFAGAGSGPTLAAAAAWDGLAAELGQAANSFSSATAALADTAWQGPAATAMAAAAAPYASWLSTAATRALSAAAQAKAAAAVYEAARAATVDPLLVAANRHQLVSLVLSNLFGQNAPAIAATEAAYEQLWAADVAAMVSYHSGASAVAAQLAPWAQAVRALPNPTAPALASGPAALAIPALGIGNTGIGNIFSIGNIGDYNLGNGNTGNANLGSGNTGQANLGSGNTGFFNFGSGNTANTNFGSGNLGNLNLGSGNDGNGNFGLGNIGDGNRGSGNVGSFNFGTANAGSFNVGSANHGSPNVGFANLGNNNLGIANLGNNNLGIANLGNNNIGIGLTGDNMIGIGALNSGIGNLGFGNSGNNNIGLFNSGNNNIGFFNSGDSNFGFFNSGDTNTGFGNAGFTNTGFGNAGSGNFGFGNAGNNNFGFGNSGFENMGVGNSGAYNTGSFNSGTLNTGDLNSGDFNTGWANSGDINTGGFHSGDLNTGFGSPVDQPVMNSGFGNIGTGNSGFNNSGDANSGFQNTNTGAFFIGHSGLLNSGGGQHVGISNSGTGFNTGLFNTGFNNTGIGNSATNAAFTTTSGVANSGDNSSGGFNAGNDQSGFFDG | not soluble
18 | MSLTKVSSLGYPRLGENREWKKLIEAYWAGKVSKNDLFAGAKELRLDFLKKQLNAGLDLIPVGDFSLYDHILDLSVQFNIIPKRFAKEPIDIDLYFAIARGNKENVASSMKKWFNTNYHYIVPEWSKQRPKLNNNRLLDLYLEAREVVGDKAKPVITGPITYVALSTGVEDFTAAVKSLLPLYKQVFTELVKAGASYIQVDEPIFVTDEGKDYLQAAKAVYAYFAKEVPDAKFIFQTYFEGLIDSQVLSQLPVDAFGLDFVYGLEENLEAIKTGAFKGKEIFAGVIDGRNIWSSDFVKTSALLETIEEQSAALTIQPSCSLLHVPVTTKNETDLDPVLRNGLAFADEKLTEVKRLAEHLDGREDPAYDLHIAHFDALQAADFRNVKLEDLSRVATKRPSDFAKRRDIQQEKLHLPLLPTTTIGSFPQSREIRRTRLAWKRGDISDAEYKQFIQAEIERWIRIQEDLDLDVLVHGEFERVDMVEFFGQKLAGFTTTKFGWVQSYGSRAVKPPIIYGDVQHLEPITVEETVYAQSLTDRPVKGMLTGPITITNWSFERTDIPRDQLFNQIGLAIKDEIKLLENAGIAIIQVDEAALREGLPLRKSKQKAYLDDAVHAFHIATSSVKDETQIHTHMCYSKFDEIIDAIRALDADVISIETSRSHGDIIESFETAVYPLGIGLGVYDIHSPRVPTKEEVVANIERPLRQLSPTQFWVNPDCGLKTRQEPETIAALKVLVAATKEVRQKLGNEGHHHHHH | soluble
19 | AHHHHHHGSVKFCPKCGSIMIPDRRRGVFVCRKCGYEEPINPEDTKAYRRTEEVKHRPDEGVVVIEQEVSTLPTAKVTCPKCGHNEAWWWELQTRAGDEPSTIFYKCKKCGYVWRSYE | soluble
20 | MHRHVVTKVLPYTPDQLFELVGDVDAYPKFVPWITGMRTWNGRVDGAVSTVDAEAQVGFSFLREKFATRKRRDKDARSIDVSLLYGPFKRLNNGWRFMPEGDATRVEFVIEFAFKSALLDAMLAANVDRAAGKLIACFEARAQQLHGALEHHHHHH | soluble
